We go through 3 molecules from patent EP4772534A1 (Astellas Pharma, Inc., dated 2026).

First the molecules themselves.
B1: LYS_E294Del_h1x (antibody, human IgG1, kappa)
heavy: QVQLVQSGAEVKKPGASVKVSCKASGYAFSSSWVNWVRQAPGQGLEWMGRIYPGDGDTDYNGKFKGRVTLTADKSTSTAYMELSSLRSEDTAVYYCARRRGYEAVFDYWGQGTLVTVSSASTKGPSVFPLAPSSKSTSGGTAALGCLVKDYFPEPVTVSWNSGALTSGVHTFPAVLQSSGLYSLSSVVTVPSSSLGTQTYICNVNHKPSNTKVDKKVEPKSCDKTHTCPPCPAPELLGGPSVFLFPPKPKDTLMISRTPEVTCVVVDVSHEDPEVKFNWYVDGVEVHNAKTKPREQYNSTYRVVSVLTVLHQDWLNGKEYKCKVSNKALPAPIEKTISKAKGQPREPQVYTLPPSRDELTKNQVSLTCLVKGFYPSDIAVEWESNGQPENNYKTTPPVLDSDGSFFLYSKLTVDKSRWQQGNVFSCSVMHEALHNHYTQKSLSLSPGK
light: DIQLTQSPSSLSASVGDRVTITCRASESVDNYDISFLNWFQQKPGKAPKLLIYAASNQGSGVPSRFSGSGSGTDFTLTISSLQPEDFATYYCQQSKEVPYTFGGGTKVEIKRTVAAPSVFIFPPSDEQLKSGTASVVCLLNNFYPREAKVQWKVDNALQSGNSQESVTEQDSKDSTYSLSSTLTLSKADYEKHKVYACEVTHQGLSSPVTKSFNRGEC
notes: Expressed in ExpiCHO-S cells without ST6GAL1 co-expression; also called anti-lysozyme antibody having the E294Del amino acid mutation in the human Igγ1 constant region
B2: LYS_1c3-m1_h10 (antibody, human IgG1, kappa)
heavy: not shown
light: B1 light
notes: human Igγ1 constant region, unmodified Fc; Expressed in ExpiCHO-S cells without ST6GAL1 co-expression; also called anti-lysozyme antibody having the human Igγ1 constant region (Fc non-variant)
B3: LYS_E294Del_LALA_h1x (antibody, human IgG1, kappa, L234A L235A)
heavy: B1 heavy with L236A, L237A
light: B1 light
notes: Expressed in ExpiCHO-S cells without ST6GAL1 co-expression; also called anti-lysozyme antibody having the L234A/L235A/E294Del amino acid mutations in the human Igγ1 constant region

Substitutions are numbered along the chain they refer to. Names and notes keep the numbering of the source.

For the experiment, the target named is T1, human FcγRI (human, UniProt P12314 16-288, limits assumed).
T1 construct: Construct used in the Biacore assay (source, tag, limits) is not described; also called human FcyRI
T1 sequence (P12314 16-288 limits assumed): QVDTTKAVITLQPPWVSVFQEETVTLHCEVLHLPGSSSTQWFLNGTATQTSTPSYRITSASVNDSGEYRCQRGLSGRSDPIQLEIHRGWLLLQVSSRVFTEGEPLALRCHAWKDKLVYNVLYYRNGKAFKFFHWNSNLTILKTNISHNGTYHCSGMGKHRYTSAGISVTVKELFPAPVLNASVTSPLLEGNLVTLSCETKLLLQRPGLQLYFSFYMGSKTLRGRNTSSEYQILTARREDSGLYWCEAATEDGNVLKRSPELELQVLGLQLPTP
The experiment can be described thus: Biacore T200 (SPR).
As for B1, the binding result was “binds”. Take B2: the binding result was “binds”. On to B3, for which the binding result is “no binding”.
